From patent US20160272683A1 (Novo Nordisk, published 2016)
Numbered stars: 1 amine (or outer) side, 2 acyl side, 3 side chain; on linkers, the order of the positions; unused ones are H or OH. * marks the point of attachment. C20 diacid = O=C(O)CCCCCCCCCCCCCCCCCCC(=O)*; C18 diacid = O=C(O)CCCCCCCCCCCCCCCCC(=O)*; γGlu = O=C(O)[C@H](CCC(=O)[*:2])N[*:1]

T1: human amylin 3(a) receptor (human calcitonin receptor co-expressed with RAMP-3) (human, UniProt P30988 25-474; O60896 24-148, limits assumed)
T1 sequence (looked up) 1: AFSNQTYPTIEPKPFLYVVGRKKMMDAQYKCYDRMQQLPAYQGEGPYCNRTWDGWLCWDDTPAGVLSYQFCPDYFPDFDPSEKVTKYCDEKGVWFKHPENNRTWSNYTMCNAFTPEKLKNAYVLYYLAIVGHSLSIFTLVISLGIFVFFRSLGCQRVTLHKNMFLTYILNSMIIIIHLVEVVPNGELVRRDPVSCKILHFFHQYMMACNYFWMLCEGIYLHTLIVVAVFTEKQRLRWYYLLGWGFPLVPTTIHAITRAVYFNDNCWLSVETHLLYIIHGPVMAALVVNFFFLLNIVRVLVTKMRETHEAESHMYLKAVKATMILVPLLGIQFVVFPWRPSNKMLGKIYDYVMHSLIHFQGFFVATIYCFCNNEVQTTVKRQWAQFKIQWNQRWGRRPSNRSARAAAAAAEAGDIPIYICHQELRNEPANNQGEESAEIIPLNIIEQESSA
T1 sequence (looked up) 2: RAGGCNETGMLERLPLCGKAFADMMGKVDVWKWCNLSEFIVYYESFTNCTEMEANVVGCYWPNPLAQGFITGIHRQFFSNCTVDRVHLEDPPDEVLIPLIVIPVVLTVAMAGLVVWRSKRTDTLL

T2: human calcitonin receptor (human, UniProt P30988 25-474)
T2 sequence (looked up): T1 sequence (looked up) 1

B1: [N-terminal(C20 diacid-gGlu), des1, 12H, 25H, 30T, 31G, 32T]mimylin (peptide)
peptide: {C20 diacid-γGlu}-ASELSTAALGHLSAELHELATLPHTETGTGTP-NH2
SMILES: CC(C)C[C@H](NC(=O)[C@H](C)NC(=O)[C@H](C)NC(=O)[C@@H](NC(=O)[C@H](CO)NC(=O)[C@H](CC(C)C)NC(=O)[C@H](CCC(=O)O)NC(=O)[C@H](CO)NC(=O)[C@H](C)NC(=O)CC[C@H](NC(=O)CCCCCCCCCCCCCCCCCCC(=O)O)C(=O)O)[C@@H](C)O)C(=O)NCC(=O)N[C@@H](Cc1c[nH]cn1)C(=O)N[C@@H](CC(C)C)C(=O)N[C@@H](CO)C(=O)N[C@@H](C)C(=O)N[C@@H](CCC(=O)O)C(=O)N[C@@H](CC(C)C)C(=O)N[C@@H](Cc1c[nH]cn1)C(=O)N[C@@H](CCC(=O)O)C(=O)N[C@@H](CC(C)C)C(=O)N[C@@H](C)C(=O)N[C@H](C(=O)N[C@@H](CC(C)C)C(=O)N1CCC[C@H]1C(=O)N[C@@H](Cc1c[nH]cn1)C(=O)N[C@H](C(=O)N[C@@H](CCC(=O)O)C(=O)N[C@H](C(=O)NCC(=O)N[C@H](C(=O)NCC(=O)N[C@H](C(=O)N1CCC[C@H]1C(N)=O)[C@@H](C)O)[C@@H](C)O)[C@@H](C)O)[C@@H](C)O)[C@@H](C)O
B2: [N-terminal(C20 diacid-gGlu), des1, 4G, 9V, 23Y, 30S, 31G, 32T]mimylin (peptide)
peptide: {C20 diacid-γGlu}-ASGLSTAVLGRLSAELHELATYPRTETGSGTP-NH2
SMILES: CC(C)C[C@H](NC(=O)CNC(=O)[C@H](CO)NC(=O)[C@H](C)NC(=O)CC[C@H](NC(=O)CCCCCCCCCCCCCCCCCCC(=O)O)C(=O)O)C(=O)N[C@@H](CO)C(=O)N[C@H](C(=O)N[C@@H](C)C(=O)N[C@H](C(=O)N[C@@H](CC(C)C)C(=O)NCC(=O)N[C@@H](CCCNC(=N)N)C(=O)N[C@@H](CC(C)C)C(=O)N[C@@H](CO)C(=O)N[C@@H](C)C(=O)N[C@@H](CCC(=O)O)C(=O)N[C@@H](CC(C)C)C(=O)N[C@@H](Cc1c[nH]cn1)C(=O)N[C@@H](CCC(=O)O)C(=O)N[C@@H](CC(C)C)C(=O)N[C@@H](C)C(=O)N[C@H](C(=O)N[C@@H](Cc1ccc(O)cc1)C(=O)N1CCC[C@H]1C(=O)N[C@@H](CCCNC(=N)N)C(=O)N[C@H](C(=O)N[C@@H](CCC(=O)O)C(=O)N[C@H](C(=O)NCC(=O)N[C@@H](CO)C(=O)NCC(=O)N[C@H](C(=O)N1CCC[C@H]1C(N)=O)[C@@H](C)O)[C@@H](C)O)[C@@H](C)O)[C@@H](C)O)C(C)C)[C@@H](C)O
B3: [N-terminal(C18 diacid-gGlu), des1, 5V, 9V, 10V, 30S, 31G]mimylin (peptide)
peptide: {C18 diacid-γGlu}-ASEVSTAVVGRLSAELHELATLPRTETGSGSP-NH2
SMILES: CC(C)C[C@H](NC(=O)[C@H](CCC(=O)O)NC(=O)[C@H](Cc1c[nH]cn1)NC(=O)[C@H](CC(C)C)NC(=O)[C@H](CCC(=O)O)NC(=O)[C@H](C)NC(=O)[C@H](CO)NC(=O)[C@H](CC(C)C)NC(=O)[C@H](CCCNC(=N)N)NC(=O)CNC(=O)[C@@H](NC(=O)[C@@H](NC(=O)[C@H](C)NC(=O)[C@@H](NC(=O)[C@H](CO)NC(=O)[C@@H](NC(=O)[C@H](CCC(=O)O)NC(=O)[C@H](CO)NC(=O)[C@H](C)NC(=O)CC[C@H](NC(=O)CCCCCCCCCCCCCCCCC(=O)O)C(=O)O)C(C)C)[C@@H](C)O)C(C)C)C(C)C)C(=O)N[C@@H](C)C(=O)N[C@H](C(=O)N[C@@H](CC(C)C)C(=O)N1CCC[C@H]1C(=O)N[C@@H](CCCNC(=N)N)C(=O)N[C@H](C(=O)N[C@@H](CCC(=O)O)C(=O)N[C@H](C(=O)NCC(=O)N[C@@H](CO)C(=O)NCC(=O)N[C@@H](CO)C(=O)N1CCC[C@H]1C(N)=O)[C@@H](C)O)[C@@H](C)O)[C@@H](C)O
B4: [N-terminal(C20 diacid-gGlu), des1, 9T, 21S, 23Y, 30S, 31G, 33Y]mimylin (peptide)
peptide: {C20 diacid-γGlu}-ASELSTATLGRLSAELHELSTYPRTETGSGSY-NH2
SMILES: CC(C)C[C@H](NC(=O)[C@H](CCCNC(=N)N)NC(=O)CNC(=O)[C@H](CC(C)C)NC(=O)[C@@H](NC(=O)[C@H](C)NC(=O)[C@@H](NC(=O)[C@H](CO)NC(=O)[C@H](CC(C)C)NC(=O)[C@H](CCC(=O)O)NC(=O)[C@H](CO)NC(=O)[C@H](C)NC(=O)CC[C@H](NC(=O)CCCCCCCCCCCCCCCCCCC(=O)O)C(=O)O)[C@@H](C)O)[C@@H](C)O)C(=O)N[C@@H](CO)C(=O)N[C@@H](C)C(=O)N[C@@H](CCC(=O)O)C(=O)N[C@@H](CC(C)C)C(=O)N[C@@H](Cc1c[nH]cn1)C(=O)N[C@@H](CCC(=O)O)C(=O)N[C@@H](CC(C)C)C(=O)N[C@@H](CO)C(=O)N[C@H](C(=O)N[C@@H](Cc1ccc(O)cc1)C(=O)N1CCC[C@H]1C(=O)N[C@@H](CCCNC(=N)N)C(=O)N[C@H](C(=O)N[C@@H](CCC(=O)O)C(=O)N[C@H](C(=O)NCC(=O)N[C@@H](CO)C(=O)NCC(=O)N[C@@H](CO)C(=O)N[C@@H](Cc1ccc(O)cc1)C(N)=O)[C@@H](C)O)[C@@H](C)O)[C@@H](C)O
B5: [N-terminal(C20 diacid-gGlu), des1, 21S, 23Y, 30S, 31G, 33Y]mimylin (peptide)
peptide: {C20 diacid-γGlu}-ASELSTAALGRLSAELHELSTYPRTETGSGSY-NH2
SMILES: CC(C)C[C@H](NC(=O)[C@H](C)NC(=O)[C@H](C)NC(=O)[C@@H](NC(=O)[C@H](CO)NC(=O)[C@H](CC(C)C)NC(=O)[C@H](CCC(=O)O)NC(=O)[C@H](CO)NC(=O)[C@H](C)NC(=O)CC[C@H](NC(=O)CCCCCCCCCCCCCCCCCCC(=O)O)C(=O)O)[C@@H](C)O)C(=O)NCC(=O)N[C@@H](CCCNC(=N)N)C(=O)N[C@@H](CC(C)C)C(=O)N[C@@H](CO)C(=O)N[C@@H](C)C(=O)N[C@@H](CCC(=O)O)C(=O)N[C@@H](CC(C)C)C(=O)N[C@@H](Cc1c[nH]cn1)C(=O)N[C@@H](CCC(=O)O)C(=O)N[C@@H](CC(C)C)C(=O)N[C@@H](CO)C(=O)N[C@H](C(=O)N[C@@H](Cc1ccc(O)cc1)C(=O)N1CCC[C@H]1C(=O)N[C@@H](CCCNC(=N)N)C(=O)N[C@H](C(=O)N[C@@H](CCC(=O)O)C(=O)N[C@H](C(=O)NCC(=O)N[C@@H](CO)C(=O)NCC(=O)N[C@@H](CO)C(=O)N[C@@H](Cc1ccc(O)cc1)C(N)=O)[C@@H](C)O)[C@@H](C)O)[C@@H](C)O
B6: [N-terminal(C18 diacid), 9V]mimylin (peptide)
peptide: {C18 diacid}-EASELSTAVLGRLSAELHELATLPRTETGPESP-NH2
SMILES: CC(C)C[C@H](NC(=O)[C@H](CCC(=O)O)NC(=O)[C@H](Cc1c[nH]cn1)NC(=O)[C@H](CC(C)C)NC(=O)[C@H](CCC(=O)O)NC(=O)[C@H](C)NC(=O)[C@H](CO)NC(=O)[C@H](CC(C)C)NC(=O)[C@H](CCCNC(=N)N)NC(=O)CNC(=O)[C@H](CC(C)C)NC(=O)[C@@H](NC(=O)[C@H](C)NC(=O)[C@@H](NC(=O)[C@H](CO)NC(=O)[C@H](CC(C)C)NC(=O)[C@H](CCC(=O)O)NC(=O)[C@H](CO)NC(=O)[C@H](C)NC(=O)[C@H](CCC(=O)O)NC(=O)CCCCCCCCCCCCCCCCC(=O)O)[C@@H](C)O)C(C)C)C(=O)N[C@@H](C)C(=O)N[C@H](C(=O)N[C@@H](CC(C)C)C(=O)N1CCC[C@H]1C(=O)N[C@@H](CCCNC(=N)N)C(=O)N[C@H](C(=O)N[C@@H](CCC(=O)O)C(=O)N[C@H](C(=O)NCC(=O)N1CCC[C@H]1C(=O)N[C@@H](CCC(=O)O)C(=O)N[C@@H](CO)C(=O)N1CCC[C@H]1C(N)=O)[C@@H](C)O)[C@@H](C)O)[C@@H](C)O
B7: [N-terminal(C20 diacid-gGlu), des1, 9T, 21S, 23Y, 30S, 31G]mimylin (peptide)
peptide: {C20 diacid-γGlu}-ASELSTATLGRLSAELHELSTYPRTETGSGSP-NH2
SMILES: CC(C)C[C@H](NC(=O)[C@H](CCCNC(=N)N)NC(=O)CNC(=O)[C@H](CC(C)C)NC(=O)[C@@H](NC(=O)[C@H](C)NC(=O)[C@@H](NC(=O)[C@H](CO)NC(=O)[C@H](CC(C)C)NC(=O)[C@H](CCC(=O)O)NC(=O)[C@H](CO)NC(=O)[C@H](C)NC(=O)CC[C@H](NC(=O)CCCCCCCCCCCCCCCCCCC(=O)O)C(=O)O)[C@@H](C)O)[C@@H](C)O)C(=O)N[C@@H](CO)C(=O)N[C@@H](C)C(=O)N[C@@H](CCC(=O)O)C(=O)N[C@@H](CC(C)C)C(=O)N[C@@H](Cc1c[nH]cn1)C(=O)N[C@@H](CCC(=O)O)C(=O)N[C@@H](CC(C)C)C(=O)N[C@@H](CO)C(=O)N[C@H](C(=O)N[C@@H](Cc1ccc(O)cc1)C(=O)N1CCC[C@H]1C(=O)N[C@@H](CCCNC(=N)N)C(=O)N[C@H](C(=O)N[C@@H](CCC(=O)O)C(=O)N[C@H](C(=O)NCC(=O)N[C@@H](CO)C(=O)NCC(=O)N[C@@H](CO)C(=O)N1CCC[C@H]1C(N)=O)[C@@H](C)O)[C@@H](C)O)[C@@H](C)O

Each binder was assayed against T1, human amylin 3(a) receptor (human …) (assay: cell-based or functional assay).

Row | Binder | hAmylin-R funct. EC50 (pM)
1 | B1 | 64
2 | {C18 diacid-γGlu}-ASELTTAVLGRLSAELHELATLPRTETGTGTP-NH2 [[N-terminal(C18 diacid-gGlu), des1, 6T, 9V, 30T, 31G, 32T]mimylin] | 65
3 | B2 | 47
4 | B3 | 11
5 | {C18 diacid-γGlu}-ASELTTAVLGRLSAELHELATLPRTETGSGTP-NH2 [[N-terminal(C18 diacid-gGlu), des1, 6T, 9V, 30S, 31G, 32T]mimylin] | 42
6 | B4 | 20
7 | B5 | 50
8 | B6 | 12
9 | B7 | 22

What follows are binders tested against T2, human calcitonin receptor (assay: cell-based or functional assay).

Row | Binder | hCTR funct. EC50 (pM)
10 | B1 | 24
11 | {C18 diacid-γGlu}-ASELTTAVLGRLSAELHELATLPRTETGTGTP-NH2 [[N-terminal(C18 diacid-gGlu), des1, 6T, 9V, 30T, 31G, 32T]mimylin] | 32
12 | B2 | 28
13 | B3 | 8
14 | {C18 diacid-γGlu}-ASELTTAVLGRLSAELHELATLPRTETGSGTP-NH2 [[N-terminal(C18 diacid-gGlu), des1, 6T, 9V, 30S, 31G, 32T]mimylin] | 30
15 | B4 | 23
16 | B5 | 34
17 | B6 | 9
18 | B7 | 23
